Laboratory results taken from publication PMC7171158.

Molecular target: NusA-AR2^D443C labeled with fluorescein-5-maleimide (E. coli) (UniProt P0AFF6)
Test: fluorescence polarisation; fluorescence anisotropy; 25 nM fluorescein-labeled NusA-AR2^D443C with increasing unlabeled protein; 25 °C; 50 mM Na-P pH 6.5, 100 mM NaCl, 150 mM glucose, 5 mM DTT, 0.05% Tween; two-state binding model

Kd: 8 µM
Substance: C-terminal domain of the RNA polymerase α subunit (αCTD) (domain or fragment)
